Reference: article doi:10.1101/364463 (bioRxiv, 2019)

Key:
Experiment in all cases: pull-down
GST-PI31-WT = target: T1, GST-PI31-WT (Drosophila, UniProt Q9V637 1-270)
T1 sequence: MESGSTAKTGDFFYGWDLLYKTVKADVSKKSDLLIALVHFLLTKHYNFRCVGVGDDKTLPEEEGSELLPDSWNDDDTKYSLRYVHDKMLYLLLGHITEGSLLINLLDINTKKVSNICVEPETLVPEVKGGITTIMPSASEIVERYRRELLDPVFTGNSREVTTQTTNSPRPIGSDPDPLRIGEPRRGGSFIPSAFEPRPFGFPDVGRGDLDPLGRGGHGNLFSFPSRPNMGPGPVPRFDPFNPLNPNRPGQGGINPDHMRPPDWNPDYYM

GST-PI31-S168E = target: T2, GST-PI31-S168E (Drosophila, UniProt Q9V637 1-270, S168E)
T2 sequence: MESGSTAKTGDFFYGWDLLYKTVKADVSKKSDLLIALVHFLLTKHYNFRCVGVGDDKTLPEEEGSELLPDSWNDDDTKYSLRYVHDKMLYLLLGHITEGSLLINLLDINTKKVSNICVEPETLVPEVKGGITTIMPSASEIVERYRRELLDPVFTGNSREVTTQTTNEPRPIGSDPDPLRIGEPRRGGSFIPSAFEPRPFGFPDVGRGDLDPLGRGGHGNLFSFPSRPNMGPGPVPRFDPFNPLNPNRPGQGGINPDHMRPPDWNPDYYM

GST-PI31-S168D = target: T3, GST-PI31-S168D (Drosophila, UniProt Q9V637 1-270, S168D)
T3 sequence: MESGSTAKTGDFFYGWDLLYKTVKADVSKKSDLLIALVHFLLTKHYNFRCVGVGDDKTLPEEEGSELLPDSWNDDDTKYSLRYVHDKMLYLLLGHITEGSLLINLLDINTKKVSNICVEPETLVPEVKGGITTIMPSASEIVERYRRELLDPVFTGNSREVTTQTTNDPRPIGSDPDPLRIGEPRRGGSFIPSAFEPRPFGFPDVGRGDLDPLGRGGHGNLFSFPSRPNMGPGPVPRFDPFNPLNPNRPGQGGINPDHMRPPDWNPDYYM

- binding result (GST-PI31-WT): binds
- binding result (GST-PI31-S168E): binds
- binding result (GST-PI31-S168D): binds
B1: FLAG-dDYNLL1 (recombinant, E. coli) (natural protein)
chain: MSDRKAVIKNADMSEEMQQDAVDCATQALEKYNIEKDIAAYIKKEFDKKYNPTWHCIVGRNFGSYVTHETRHFIYFYLGQVAILLFKSG
